Experiments:
[1] = molecular target: TNFα (fused trimer) - AVI Tag, biotinylated, in the presence of compound (3); test: TR-FRET, 7.5 nM proteins, compound (3) up to 25 µM; partial loss of receptor binding
[2] = molecular target: TNFα (fused trimer) - AVI Tag, biotinylated, in the presence of compound (4); test: TR-FRET, 7.5 nM proteins, compound (4) up to 25 µM; partial loss of receptor binding
[3] = molecular target: T1, fused human TNFα trimer in complex with compound (2) (human, UniProt P01375 77-233; P01375 86-233; P01375 86-233, limits assumed); test: analytical SEC (HPLC, TSK G3000SW), Abs 280 nm against retention time; 3.2 fold excess of TNFR1 over fused TNFα trimer preincubated with 90, 240, 465 or 690 µM compound (2) [D00007 Fig. 5(Cont.]
T1 construct: also called trimer-compound complex; compound-trimer complex
Method: The final concentration of DMSO was 0.25%. The mixture was incubated for 1 hour at 22° C.

[4] = molecular target: T2, fused human TNFα trimer in complex with compound (5) (human, UniProt P01375 77-233; P01375 86-233; P01375 86-233, limits assumed); test: analytical SEC (Superdex 200HR 10/300), Abs 280 nm against retention (CV); 3.5 fold excess of TNFR1 over trimer preincubated with 200 µM compound (5)
T2 construct: also called trimer-compound complex
Method: The final concentration of DMSO was 1.0%. The mixture was incubated for 1 hour at 22° C.

[5] = molecular target: T3, soluble form of mouse TNFα (VC 6535) in complex with compound (1) (mouse, UniProt P06804 89-235); test: X-ray crystallography, 3.15 Å
T3 construct: also called murine TNFα; trimer-compound complex
T3 sequence: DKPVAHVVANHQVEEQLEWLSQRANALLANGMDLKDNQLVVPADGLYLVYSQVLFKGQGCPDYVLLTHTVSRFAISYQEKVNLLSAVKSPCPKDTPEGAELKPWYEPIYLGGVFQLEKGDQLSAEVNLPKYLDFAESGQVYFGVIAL
Method: The final purified ternary complex was concentrated to 18.5 mg/ml and immediately used in crystallization trials.
The ternary complex was crystallized by sitting drop vapor diffusion by mixing 0.5 μl of complex with 0.5 μl of 800 mM sodium potassium tartrate, 0.5% PEG5000 MME, 100 mM Tris pH 8.5 over 100 μl of the same crystallization solution. Crystals were harvested for data collection approximately 2 months after initial set up. They were briefly soaked in paraffin oil and frozen directly in liquid nitrogen for data collection on Aug. 17, 2012 at Argonne Photon Source, beamline 21-IDF.

T1 sequence (P01375 other isoform, or with tags, fused parts or gaps limits assumed): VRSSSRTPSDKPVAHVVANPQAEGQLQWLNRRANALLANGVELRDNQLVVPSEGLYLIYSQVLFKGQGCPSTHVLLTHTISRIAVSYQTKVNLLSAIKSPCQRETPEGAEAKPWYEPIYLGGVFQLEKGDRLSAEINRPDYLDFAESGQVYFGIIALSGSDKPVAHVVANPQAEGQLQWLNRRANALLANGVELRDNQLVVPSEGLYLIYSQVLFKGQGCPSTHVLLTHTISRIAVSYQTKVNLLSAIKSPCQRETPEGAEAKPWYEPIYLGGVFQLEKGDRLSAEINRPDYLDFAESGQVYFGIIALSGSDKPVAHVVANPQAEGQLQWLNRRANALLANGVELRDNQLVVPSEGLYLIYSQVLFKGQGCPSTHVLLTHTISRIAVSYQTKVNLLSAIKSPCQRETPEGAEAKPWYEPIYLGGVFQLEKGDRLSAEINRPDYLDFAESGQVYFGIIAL
T2 sequence (P01375 other isoform, or with tags, fused parts or gaps limits assumed): as above

Molecule “TNFR1(ECD)-6xLysine-Human single chain Fc, Alexa Fluor 488 conjugated (from UniProt P19438 30-211) (Fc fusion)” has a maximal inhibition of FRET signal [1] of 29% and a maximal inhibition of FRET signal [2] of 36%.

B1: Human TNFR1 (V43-N184)(N54D, C182S) (receptor, UniProt P19438 43-184, looked up)
chain: VCPQGKYIHPQDNSICCTKCHKGTYLYNDCPGPGQDTDCRECESGSFTASENHLRHCLSCSKCRKEMGQVEISSCTVDRDTVCGCRKNQYRHYWSENLFQCFNCSLCLNGTVHLSCQEKQNTVCTCHAGFFLRENECVSSSN
notes: also called receptor
B1: binds [3]; binds [4].

B2: extracellular domain of human TNFR1 (VC 5602) (receptor)
chain: GSVCPQGKYIHPQDNSICCTKCHKGTYLYNDCPGPGQDTDCRECESGSFTASENHLRHCLSCSKCRKEMGQVEISSCTVDRDTVCGCRKNQYRHYWSENLFQCFNCSLCLNGTVHLSCQEKQNTVCTCHAGFFLRENECVSSSN
notes: Expressed in baculovirus infected insect cells
B2: binds [5].

Source: patent US20180203016A1 (UCB, published 2018)
